The star is where a group is joined. Biotin = O=C1N[C@H]2[C@H](CS[C@H]2CCCCC(=O)*)N1; AEEA = NCCOCCOCC(=O)O
How the values were obtained:
[1] = molecular target: T1, biotinylated 16 mer peptide 37 from the stalk region of hTLT-1 (SMILES …); assay: peptide-walking ELISA on streptavidin plate, triple determination
T1 peptide: {Biotin-AEEA}-EEETHKIGSLAENAFS-NH2
Experimental: (§1) The peptide walking ELISA defined the minimal binding region of the peptide. This was established by coating biotinylated peptides with one residue frameshift in the stalk region of TLT-1 in streptavidin plates followed by binding of the antibody of interest (mAb0061). A secondary antibody was added for detection and binding was measured at 450 nm. Positive control: binding to biotinylated TLT-1.

[2] = molecular target: T2, biotinylated 16 mer peptide 38 from the stalk region of hTLT-1 (SMILES …); assay: as above
T2 construct: also called D 2
T2 peptide: {Biotin-AEEA}-EETHKIGSLAENAFSD-NH2
Experimental: as §1

[3] = molecular target: T3, biotinylated 16 mer peptide 40 from the stalk region of hTLT-1 (SMILES …); assay: as above
T3 construct: also called D 4
T3 peptide: {Biotin-AEEA}-THKIGSLAENAFSDPA-NH2
Experimental: as §1

[4] = molecular target: T4, biotinylated 20 mer peptide 9 from stalk region of TLT-1 (N-terminal bio-Oeg (biotin, 8-amino-3,6-dioxaoctanoic acid spacer)); assay: as above
T4 construct: also called A 9
T4 peptide: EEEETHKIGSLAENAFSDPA
Experimental: as §1

[5] = molecular target: T5, biotinylated 16 mer peptide 39 from the stalk region of hTLT-1 (SMILES …); assay: as above
T5 construct: also called D 3
T5 peptide: {Biotin-AEEA}-ETHKIGSLAENAFSDP-NH2
Experimental: as §1

[6] = molecular target: T6, biotinylated 20 mer peptide 8 from stalk region of TLT-1 (N-terminal bio-Oeg (biotin, 8-amino-3,6-dioxaoctanoic acid spacer)); assay: as above
T6 construct: also called A 8
T6 peptide: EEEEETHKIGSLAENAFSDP
Experimental: as §1

[7] = molecular target: T7, biotinylated 20 mer peptide 10 from stalk region of TLT-1 (N-terminal bio-Oeg (biotin, 8-amino-3,6-dioxaoctanoic acid spacer)); assay: as above
T7 construct: also called A10
T7 peptide: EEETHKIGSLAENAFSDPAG
Experimental: as §1

[8] = molecular target: T8, biotinylated 20 mer peptide 5 from stalk region of TLT-1 (N-terminal bio-Oeg (biotin, 8-amino-3,6-dioxaoctanoic acid spacer)); assay: as above
T8 construct: also called A 5
T8 peptide: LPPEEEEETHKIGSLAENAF
Experimental: as §1

[9] = molecular target: T9, biotinylated 20 mer peptide 11 from stalk region of TLT-1 (N-terminal bio-Oeg (biotin, 8-amino-3,6-dioxaoctanoic acid spacer)); assay: as above
T9 construct: also called A11
T9 peptide: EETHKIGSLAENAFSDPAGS
Experimental: as §1

[10] = molecular target: T10, biotinylated 20 mer peptide 6 from stalk region of TLT-1 (N-terminal bio-Oeg (biotin, 8-amino-3,6-dioxaoctanoic acid spacer)); assay: as above
T10 construct: also called A 6
T10 peptide: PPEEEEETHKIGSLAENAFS
Experimental: as §1

[11] = molecular target: T11, biotinylated 20 mer peptide 13 from stalk region of TLT-1 (N-terminal bio-Oeg (biotin, 8-amino-3,6-dioxaoctanoic acid spacer)); assay: as above
T11 construct: also called B 1
T11 peptide: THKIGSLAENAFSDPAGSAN
Experimental: as §1

[12] = molecular target: T12, biotinylated 20 mer peptide 12 from stalk region of TLT-1 (N-terminal bio-Oeg (biotin, 8-amino-3,6-dioxaoctanoic acid spacer)); assay: as above
T12 construct: also called A12
T12 peptide: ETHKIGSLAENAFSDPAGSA
Experimental: as §1

[13] = molecular target: T13, biotinylated 20 mer peptide 15 from stalk region of TLT-1 (N-terminal bio-Oeg (biotin, 8-amino-3,6-dioxaoctanoic acid spacer)); assay: as above
T13 construct: also called B 3
T13 peptide: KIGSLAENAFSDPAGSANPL
Experimental: as §1

[14] = molecular target: T14, biotinylated 20 mer peptide 16 from stalk region of TLT-1 (N-terminal bio-Oeg (biotin, 8-amino-3,6-dioxaoctanoic acid spacer)); assay: as above
T14 construct: also called B 4
T14 peptide: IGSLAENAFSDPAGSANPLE
Experimental: as §1

[15] = molecular target: T15, biotinylated 16 mer peptide 41 from the stalk region of hTLT-1 (SMILES …); assay: as above
T15 construct: also called D 5
T15 peptide: {Biotin-AEEA}-HKIGSLAENAFSDPAG-NH2
Experimental: as §1

[16] = molecular target: T16, biotinylated 20 mer peptide 14 from stalk region of TLT-1 (N-terminal bio-Oeg (biotin, 8-amino-3,6-dioxaoctanoic acid spacer)); assay: as above
T16 construct: also called B 2
T16 peptide: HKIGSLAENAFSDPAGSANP
Experimental: as §1

[17] = molecular target: T17, biotinylated 20 mer peptide 7 from stalk region of TLT-1 (N-terminal bio-Oeg (biotin, 8-amino-3,6-dioxaoctanoic acid spacer)); assay: as above
T17 construct: also called A 7
T17 peptide: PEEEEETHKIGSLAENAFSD
Experimental: as §1

[18] = molecular target: T18, biotinylated 16 mer peptide 42 from the stalk region of hTLT-1 (SMILES …); assay: as above
T18 construct: also called D 6
T18 peptide: {Biotin-AEEA}-KIGSLAENAFSDPAGS-NH2
Experimental: as §1

[19] = molecular target: T19, biotinylated 16 mer peptide 36 from the stalk region of hTLT-1 (SMILES …); assay: as above
T19 construct: also called C12
T19 peptide: {Biotin-AEEA}-EEEETHKIGSLAENAF-NH2
Experimental: as §1

hTLT-1.126-162 = molecular target: T20, hTLT-1.126-162 (human); assay: told in the HX-MS example; method not given
T20 construct: Made by solid phase peptide synthesis; not glycosylated; also called TLT-1 stalk peptide; chain P
T20 peptide: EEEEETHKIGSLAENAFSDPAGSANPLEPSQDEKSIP

hTLT-1 ECD-His = molecular target: T21, hTLT-1 ECD-His (human, UniProt Q86YW5 16-162); assay: SPR Biacore, mAb captured via human Fc mAb, TLT-1 as analyte
T21 construct: Extracellular domain of human TLT-1 with C-terminal His-6 tag; the range 16-168 is computed from these; also called TLT-1-His; His tagged human TLT1
T21 sequence: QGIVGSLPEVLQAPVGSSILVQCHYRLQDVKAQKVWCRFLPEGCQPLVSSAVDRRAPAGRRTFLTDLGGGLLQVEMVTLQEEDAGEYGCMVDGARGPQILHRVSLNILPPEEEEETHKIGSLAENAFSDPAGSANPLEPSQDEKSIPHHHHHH
Experimental: Method: The mAbs of interest were either immobilized directly to a CM5 chip or by capture via a human Fc capture mAb immobilized to a CM5 chip, while TLT-1-His was immobilized by capture via an anti-His mAb CM5 chip for analysis of Fabs.
mAb direct capture: The TLT-1 mAbs were immobilised to a level of approx 500-1000 RU on a CM5 chip (50 μg/ml diluted in Na-acetate, pH 4.0) using the standard procedure recommended by the supplier. Two-fold dilutions of TLT-1 from 200 nM to 0.2 nM were tested for binding to the mAbs. Running and dilution buffer: 10 mM HEPES, 150 mM, 0.005% p20, pH 7.4. Regeneration was obtained by 10 mM Glycine, pH 1.7. mAb capture via human Fc mAb: Human Fc mAb was immobilised to approx 10.000 RU. The mAb of interest was added (approx 100 nM). Two-fold dilutions of TLT-1 from 200 nM to 0.2 nM were tested. Running and dilution buffer: 10 mM HEPES, 150 mM, 0.005% p20, pH 7.4. Regeneration was obtained in 3 M MgCl₂.

absorbance at 450 nm [1]: > 3
absorbance at 450 nm [2]: > 3
absorbance at 450 nm [3]: > 3
absorbance at 450 nm [4]: > 3
absorbance at 450 nm [5]: > 3
absorbance at 450 nm [6]: > 3
absorbance at 450 nm [7]: > 3
absorbance at 450 nm [8]: > 3
absorbance at 450 nm [9]: > 3
absorbance at 450 nm [10]: > 3
absorbance at 450 nm [11]: > 3
absorbance at 450 nm [12]: > 3
absorbance at 450 nm [13]: > 3
absorbance at 450 nm [14]: > 3
absorbance at 450 nm [15]: > 3
absorbance at 450 nm [16]: > 3
absorbance at 450 nm [17]: > 3
absorbance at 450 nm [18]: > 3
absorbance at 450 nm [19]: > 3
binding result (hTLT-1.126-162): binds
Kd (hTLT-1 ECD-His): 3.75 nM
koff (hTLT-1 ECD-His): 0.0035 s⁻¹
kon (hTLT-1 ECD-His): 932000 M⁻¹ s⁻¹
B1: mAb0061 (antibody, human IgG4 S228P, kappa, V domains shown)
VH: EVKLLESGGGLVQPGGSLKLSCAASGFDFSRYWMTWVRQAPGKGLEWIGEINPDSSTINYNPSLKDKFIISRDNAKNTLYLQMSEVRSEDTALYYCASGVFTSWGQGTLVTVSA
VL: DVVMTQTPLSLPVSLGDQASISCRSSQSLVHRNGNTYFHWALQKPGQSPKLLIYKVSNRFSGVPDRFSGSGSGTDFTLKISRVEAEDLGVYFCSQSTHVPYTFGGGTKLEIKR
notes: Mouse VH/VL, human IgG4 / kappa; variant of mAb0012 (HC T60N, LC C36A, Kabat); also called antiTLT-1 0061mab; (0012HC.T60N)2

— US20190083587A1 (Novo Nordisk, published 2019)
